Results on one protein are retold here after article PMC9713302, “Simultaneous solving high-resolution structures of various enzymes from human kidney microsomes” (Life Science Alliance, 2022).

This data set concerns the molecule itself. Description: cryo-EM structure; single-particle cryo-EM with Build and Retrieve (BaR) on the 100-200 kD SEC peak of raw human kidney microsome lysate; 20 mM Tris-HCl pH 7.5, 100 mM NaCl; 0.6 mg/ml.

B1: betaine-homocysteine methyltransferase (BHMT) (enzyme, human (endogenous in kidney microsomes), UniProt Q93088 1-406, looked up)
chain: MPPVGGKKAKKGILERLNAGEIVIGDGGFVFALEKRGYVKAGPWTPEAAVEHPEAVRQLHREFLRAGSNVMQTFTFYASEDKLENRGNYVLEKISGQEVNEAACDIARQVADEGDALVAGGVSQTPSYLSCKSETEVKKVFLQQLEVFMKKNVDFLIAEYFEHVEEAVWAVETLIASGKPVAATMCIGPEGDLHGVPPGECAVRLVKAGASIIGVNCHFDPTISLKTVKLMKEGLEAARLKAHLMSQPLAYHTPDCNKQGFIDLPEFPFGLEPRVATRWDIQKYAREAYNLGVRYIGGCCGFEPYHIRAIAEELAPERGFLPPASEKHGSWGSGLDMHTKPWVRARARKEYWENLRIASGRPYNPSMSKPDGWGVTKGTAELMQQKEATTEQQLKELFEKQKFKSQ
notes: human BHMT, endogenous in kidney microsomes; Zn2+-free and ligand-free in the structure; also called betaine-homocysteine S-methyltransferase; source: endogenous, human kidney microsomes (bought: SEKISUI XenoTech), lysate enriched by size exclusion chromatography
On to B1, for which the “stoichiometry N” value is 4.
